Where two headings read alike, the source gives them in different places.
Columns and labels:
crystal structure [1] = target: the molecule itself; assay: crystal structure
crystal structure [2] = target: the molecule itself; assay: crystal structure; remark: listed apart in the source

Row | Protein | stoichiometry N (crystal structure [1]) | stoichiometry N (crystal structure [2])
1 | human Hsp90α_293–714_W320A mutant (domain or fragment) not shown | 2 | 
2 | human Hsp90α_293–699 (wild type Hsp90α middle/C-terminal domain) (domain or fragment) not shown |  | 6

— publication PMC10183053 (Journal of biomolecular structure & dynamics, 2022)
